Assay results reported in PMC7618050, “Structure of the Bacteriophage PhiKZ non-virion RNA Polymerase transcribing from its promoter p119L”.

Target: PhiKZ nvRNAP GP55 (beta'-like);PhiKZ nvRNAP GP74 (beta'-like);PhiKZ nvRNAP GP71-73 (beta-like);PhiKZ nvRNAP … (Pseudomonas phage phiKZ;Pseudomonas …, UniProt Q8SDA7;Q8SD88;PDB:8QUE_2;Q8SD39;Q8SD94 1-420;1-677;1-700;1-543;1-521, ||||)
Test: cryo-EM structure (3.3 A); 10 mM MgCl2; 1 mM ATP, CTP, GTP, no UTP; Zn2+ in GP55; 40 mM Tris-Cl pH 8.0, 10 mM MgCl2, 5 mM DTT, 1 mM ATP/CTP/GTP, 30 min at 37 C, nvRNAP 0.1 mg/mL with scaffold 1:1; native PAGE 4-20% TGX at 4 C
Conditions: protein: recombinant;recombinant;recombinant;recombinant;recombinant; tags: ;;;;; copies: 1;1;1;1;1; label: Cy5 at 5' end of RNA (printed Cy5-GUAGA); non-template/template DNA with mismatched bubble; RNA hybrid with template (6 bp resolved)

B1: p119L RNA/DNA template with RNA extended by 3 nt (mixed)
DNA 1: AGTAATTTTAGTGAATGTATTTGCTATATTGCTATCCTAACAGTTCCCAAAAGCCTAAAGTTACAATATAGGTAC
DNA 2: GTACCTATATTGTAACTTTAGGCTTTTGGGAACTGTCTACATAGCAATATAGCAAATACATTCACTAAAATTACT
RNA: GUAGACAG
  binding result: binds
